Assay results taken from patent US20160264649A1.

Columns and labels:
Experiment in all cases: cell-based or functional assay
[1] = target: HIV-1 Env of pseudovirus isolate MGRM-G-028 (subtype G) (HIV-1)
[2] = target: HIV-1 Env of isolate MGRM-F1-010 (subtype F) (HIV-1)
[3] = target: HIV-1 Env of isolate MGRM-AE-002 (subtype AE) (HIV-1)
[4] = target: HIV-1 Env of isolate MGRM-D-002 (subtype D) (HIV-1)
[5] = target: HIV-1 Env of isolate 92WR021 (subtype A) (HIV-1)
[6] = target: HIV-1 Env of isolate MGRM-Chronic-B-004 (subtype B) (HIV-1)
[7] = target: HIV-1 Env of pseudovirus isolate MGRM-G-016 (subtype G) (HIV-1)
[8] = target: HIV-1 Env of isolate MGRM-F1-013 (subtype F) (HIV-1)
[9] = target: HIV-1 Env of isolate 92UG114 (subtype D) (HIV-1)
[10] = target: HIV-1 Env of isolate MGRM-F1-016 (subtype F) (HIV-1)
[11] = target: HIV-1 Env of isolate 94 KE 105 (subtype AC) (HIV-1)
[12] = target: HIV-1 Env of isolate MGRM-AE-005 (subtype AE) (HIV-1)
[13] = target: HIV-1 Env of isolate MGRM-D-014 (subtype D) (HIV-1)
[14] = target: HIV-1 Env of isolate 98CN009 (subtype CRF07_BC) (HIV-1)
[15] = target: HIV-1 Env of isolate MGRM-AE-006 (subtype AE) (HIV-1)
[16] = target: HIV-1 Env of isolate MGRM-D-026 (subtype D) (HIV-1)
[17] = target: HIV-1 Env of isolate MGRM-F1-020 (subtype F) (HIV-1)
[18] = target: HIV-1 Env of isolate MGRM-D-012 (subtype D) (HIV-1)
[19] = target: HIV-1 Env of isolate MGRM-Chronic-B-012 (subtype B) (HIV-1)
[20] = target: HIV-1 Env of isolate MG RM-C-026 (subtype C) (HIV-1)
[21] = target: HIV-1 Env of isolate 98IN022 (subtype C) (HIV-1)
[22] = target: HIV-1 Env of isolate MGRM-Chronic-B-018 (subtype B) (HIV-1)
[23] = target: HIV-1 Env of isolate MGRM-D-005 (subtype D) (HIV-1)
[24] = target: HIV-1 Env of isolate 6535.3 (subtype B) (HIV-1)
[25] = target: HIV-1 Env of isolate 92WR024 (subtype A) (HIV-1)
[26] = target: HIV-1 Env of isolate MGRM-F1-012 (subtype F) (HIV-1)
[27] = target: HIV-1 Env of isolate MGRM-Chronic-B-002 (subtype B) (HIV-1)
[28] = target: HIV-1 Env of pseudovirus isolate MGRM-G-009 (subtype G) (HIV-1)
[29] = target: HIV-1 Env of isolate THR0.18 (subtype B) (HIV-1)
[30] = target: HIV-1 Env of isolate MGRM-AE-003 (subtype AE) (HIV-1)
[31] = target: HIV-1 Env of isolate 94UG103 (subtype A) (HIV-1)
[32] = target: HIV-1 Env of isolate 93IN905 (subtype C) (HIV-1)
[33] = target: HIV-1 Env of pseudovirus isolate MGRM-G-001 (subtype G) (HIV-1)
[34] = target: HIV-1 Env of isolate VLGCA1 (subtype A) (HIV-1)
[35] = target: HIV-1 Env of pseudovirus isolate MGRM-G-006 (subtype G) (HIV-1)
[36] = target: HIV-1 Env of isolate JRCSF (subtype B) (HIV-1) (UniProt P20871)
[37] = target: HIV-1 Env of isolate CAAN.A2 (subtype B) (HIV-1)
[38] = target: HIV-1 Env of isolate MGRM-AE-004 (subtype AE) (HIV-1)
[39] = target: HIV-1 Env of isolate MGRM-AE-001 (subtype AE) (HIV-1)
[40] = target: HIV-1 Env of isolate 93TH305 (subtype B) (HIV-1)
[41] = target: HIV-1 Env of isolate MGRM-F1-018 (subtype F) (HIV-1)
[42] = target: HIV-1 Env of isolate 92TH021 (subtype AE) (HIV-1)
[43] = target: HIV-1 Env of isolate MGRM-D-024 (subtype D) (HIV-1)
[44] = target: HIV-1 Env of isolate MG RM-C-019 (subtype C) (HIV-1)
[45] = target: HIV-1 Env of isolate MGRM-AE-008 (subtype AE) (HIV-1)
[46] = target: HIV-1 Env of pseudovirus isolate MGRM-G-024 (subtype G) (HIV-1)

Substance: 1496_C09 (PG9) (TCN-109) (antibody)
- IC50 [1]: 0.891 µg/mL
- IC50 (pseudovirus neutralization) [2]: 0.012 µg/mL
- IC50 (pseudovirus neutralization) [3]: 0.04 µg/mL
- IC50 (pseudovirus neutralization) [4]: 0.021 µg/mL
- IC50 (pseudovirus neutralization) [5]: 0.027 µg/mL
- IC50 [6]: 0.533 µg/mL
- IC50 [7]: 1.36 µg/mL
- IC50 (pseudovirus neutralization) [8]: 1.25 µg/mL
- IC50 (pseudovirus neutralization) [9]: 40.6 µg/mL
- IC50 (pseudovirus neutralization) [10]: 0.518 µg/mL
- IC50 (pseudovirus neutralization) [11]: 37.9 µg/mL
- IC50 (pseudovirus neutralization) [12]: 0.282 µg/mL
- IC50 (pseudovirus neutralization) [13]: 0.023 µg/mL
- IC50 (neutralization) [14]: 0.371 µg/mL
- IC50 (pseudovirus neutralization) [15]: 0.063 µg/mL
- IC50 (pseudovirus neutralization) [16]: 23.7 µg/mL
- IC50 (pseudovirus neutralization) [17]: 6.4 µg/mL
- IC50 (pseudovirus neutralization) [18]: 16.2 µg/mL
- IC50 [19]: 0.2 µg/mL
- IC50 (µg/mL), pseudovirus neutralization [20]: 0.06 µg/mL
- IC50 (µg/mL), pseudovirus neutralization [21]: 0.003 µg/mL
- IC50 [22]: 0.216 µg/mL
- IC50 (pseudovirus neutralization) [23]: 1.8 µg/mL
- IC50 [24]: 1.05 µg/mL
- IC50 (pseudovirus neutralization) [25]: 0.258 µg/mL
- IC50 (pseudovirus neutralization) [26]: 0.023 µg/mL
- IC50 [27]: 3.44 µg/mL
- IC50 [28]: 10.7 µg/mL
- IC50 (µg/mL), pseudovirus neutralization [29]: 26.4 µg/mL
- IC50 (pseudovirus neutralization) [30]: 0.044 µg/mL
- IC50 (pseudovirus neutralization) [31]: 0.34 µg/mL
- IC50 (µg/mL), pseudovirus neutralization [32]: 0.035 µg/mL
- IC50 [33]: 0.166 µg/mL
- IC50 (pseudovirus neutralization) [34]: 0.069 µg/mL
- IC50 [35]: 1.98 µg/mL
- IC50 (µg/mL), pseudovirus neutralization [36]: 0.003 µg/mL
- IC50 [37]: 19.3 µg/mL
- IC50 (pseudovirus neutralization) [38]: 9 ng/mL
- IC50 (pseudovirus neutralization) [39]: 20.6 µg/mL
- IC50 [40]: 8.12 µg/mL
- IC50 (pseudovirus neutralization) [41]: 0.019 µg/mL
- IC50 (pseudovirus neutralization) [42]: 0.059 µg/mL
- IC50 (pseudovirus neutralization) [43]: 0.038 µg/mL
- IC50 (µg/mL), pseudovirus neutralization [44]: 0.005 µg/mL
- IC50 (pseudovirus neutralization) [45]: 31.5 µg/mL
- IC50 [46]: 0.163 µg/mL
